Measured values: PMC12525094

How the values were obtained:
[1] = molecular target: Class 1 phytoglobin from Beta vulgaris (BvPgb 1.2), recombinant wild type (Beta vulgaris (sugar beet)); test: other fluorescence titration; isothermal spectral shift (SpS), Monolith X, dual emission ratio 670/650 nm; NHS-dye-labelled Pgb mixed with a sixteen-step dilution of GAPDH (highest 32 µM), equilibrated 15 min, in capillaries; PBS pH 7.4 with 0.05% Tween20; 25 °C
[2] = molecular target: Class 1 phytoglobin from Beta vulgaris (BvPgb 1.2), cysteine-to-alanine variant C86A (Beta vulgaris (sugar beet)); test: as above
[3] = test system: BvPgb 1.2 rWT (class 1 phytoglobin) (Beta vulgaris); test: isothermal spectral shift (Monolith X); settings: PBS pH 7.4, 0.05% Tween20, 25 °C, 15 min equilibration, 16-step DNA dilution, top DNA stock 673 nM (i.e. 2.5 ng pET19b/µL; the two figures are …)
[4] = test system: BvPgb 1.2 C86A (Beta vulgaris); test: isothermal spectral shift (Monolith X); settings: PBS pH 7.4, 0.05% Tween20, 25 °C, 15 min equilibration, 16-step DNA dilution, top DNA stock 673 nM (i.e. 2.5 ng pET19b/µL; the two figures are …)
[5] = closed (hexacoordinate) phase of biphasic fit
[6] = open (pentacoordinate) phase of biphasic fit

Glyceraldehyde-3-phosphate dehydrogenase (GAPDH), human (from UniProt P04406 1-335) (enzyme)
Kd [1]: 260 nM
Kd [2]: 120 nM

pET19b plasmid DNA
Kd [3, 5]: 0.1 nM
Kd [3, 6]: 120 nM
Kd [4, 5]: 0.23 nM
Kd [4, 6]: 50 nM
